Experimental data: patent US20230203134A1 (published 2023)
Like-named read-outs stand apart in the source and are kept apart here.

B1: monoclonal antibody 2-51 (antibody, V domains shown)
VH: QVQLVQSGAEVKKPGASVKVSCKVSGYTLIELSMHWVRQAPGKGLEWMGGFDPEDVETIYAQQFQGRVTMTEDTSTDTAYMELSSLRSEDTAVYYCATGWAYKSTWYFGYWGQGTLVTVSS
VL: QSALTQPPSASGSPGQSVTISCTGTSSDVGGYNYVSWYQQHPGKAPKLMIYEVSKRPSGVPDRFSGSKSGNTASLTVSGLQAEDEADYYCSSYAGSRMGFGGGTKLTVL
B2: monoclonal antibody 2-4 (antibody, V domains shown)
VH: QVQLVQSGAEVKKPGASVKVSCKASGYTFTGYYMHWVRQAPGQGLEWMGWINPNSGGTNYTQMFQGRVTMTRDTSISTAYMEVSRLRSDDTAVYYCARDRSWAVVYYYMDVWGKGTTVTVSS
VL: QSALTQPPSASGSPGQSVTISCTGTSSDVGGYNYVSWYQQHPGKAPKLMIYEVSKRPSGVPDRFSGSKSGNTASLTVSGLQAEDEADYYCSSYAGSNNLVFGGGTKLTVL
B3: monoclonal antibody 2-15 (antibody, V domains shown)
VH: QVQLVQSGAEVKKPGASVRVSCKASGYTFTGYYMHWVRQAPGQGLEWMGWINPISDGTNYAQKFQGWVTMTRDTSISTVYMELSRLRSDDTAVYYCARGGSRCSGGNCYGWAYDAFDIWGQGTMITVSS
VL: QSALTQPASVSGSPGQSITISCTGTSSDVGGYNFVSWYQQHPGKAPKLMIYDVSKRPSGVSNRFSGSKSGNTASLTISGLQAEDEADCYCSSYTSSSTFVFGTGTKVTVL
B4: monoclonal antibody 2-38 (antibody, V domains shown)
VH: EVQLVESGGGLVKPGGSLRLSCAASGFTFSSYSMNWVRQAPGKGLEWVSSISSSSSYIYYADSVKGRFTISRDNAKNSLYLQMNSLRAEDTAVYYCTRAGWELRLDAFDIWGQGTMVTVSS
VL: SSELTQDPAVSVALGQTVRITCQGDSLRSSYASWYQQKPGQAPILVIYDKNNRPSGIPDRFSGSSSGNTASLTITGAQAEDEADYYCNSRDSSGILFGGGTKLTVL

Legend:
[1] = biological target: T1, SARS-CoV-2 S trimer (soluble spike ectodomain trimer) (SARS-CoV-2, UniProt P0DTC2 14-1213); assay: SPR
[2] = biological target: T1, SARS-CoV-2 S trimer (soluble spike …); assay: ELISA
[3] = biological target: T2, SARS-CoV-2 receptor binding domain (RBD) (SARS-CoV-2, UniProt P0DTC2 319-591); assay: SPR
[4] = biological target: T2, SARS-CoV-2 receptor binding domain (RBD); assay: ELISA
[5] = biological target: T1, SARS-CoV-2 S trimer (soluble spike …); assay: SPR; remark: listed apart in the source
[6] = biological target: T1, SARS-CoV-2 S trimer (soluble spike …); assay: SPR; remark: listed apart in the source

| Binder | Kd [1] | EC50 [2] | Kd [3] | EC50 [4] | Kd [5] | Kd [6] |
| --- | --- | --- | --- | --- | --- | --- |
| B1 | 77.1 nM | 0.017 µg/mL | – | – | – | – |
| B2 | – | 0.018 µg/mL | 34.2 nM | 0.021 µg/mL | 8.7 nM | 41.2 nM |
| B3 | – | 0.006 µg/mL | – | 0.008 µg/mL | 5.7 nM | – |
| B4 | – | 0.305 µg/mL | – | 0.289 µg/mL | 51.4 nM | – |
